# Reference: the MegaScale stability set (Tsuboyama et al. 2023)
# B1: EEHEE_rd4_0647 (parent)
# chain: MQVTWGNVTVTFSNPEEAKKYAEKVARKLGGQVELHNGQFRIK
# Variants of: B1
# Test: folding stability dG (cDNA display proteolysis); higher = more stable
# Settings: PBS, room temperature
row,Variant,folding stability dG [kcal/mol]
1,MQVTRGNVTVTFSNPEEAKKYAEKVARKLGGQVELHNGQFRIK,0.966
2,MQVTYGNVTVTFSNPEEAKKYAEKVARKLGGQVELHNGQFRIK,2.53
3,MQVTPGNVTVTFSNPEEAKKYAEKVARKLGGQVELHNGQFRIK,0.153
4,MQVTVGNVTVTFSNPEEAKKYAEKVARKLGGQVELHNGQFRIK,2.64
5,MQVTTGNVTVTFSNPEEAKKYAEKVARKLGGQVELHNGQFRIK,1.19
6,MQVTWNNVTVTFSNPEEAKKYAEKVARKLGGQVELHNGQFRIK,2.38
7,MQVTWRNVTVTFSNPEEAKKYAEKVARKLGGQVELHNGQFRIK,2.21
8,MQVTWFNVTVTFSNPEEAKKYAEKVARKLGGQVELHNGQFRIK,2.55
9,MQVTWTNVTVTFSNPEEAKKYAEKVARKLGGQVELHNGQFRIK,1.3
10,MQVTWQNVTVTFSNPEEAKKYAEKVARKLGGQVELHNGQFRIK,1.99
11,MQVTWENVTVTFSNPEEAKKYAEKVARKLGGQVELHNGQFRIK,1.96
12,MQVTWINVTVTFSNPEEAKKYAEKVARKLGGQVELHNGQFRIK,1.59
13,MQVTWCNVTVTFSNPEEAKKYAEKVARKLGGQVELHNGQFRIK,3.2
14,MQVTWKNVTVTFSNPEEAKKYAEKVARKLGGQVELHNGQFRIK,2.1
15,MQVTWDNVTVTFSNPEEAKKYAEKVARKLGGQVELHNGQFRIK,2.86
16,MQVTWYNVTVTFSNPEEAKKYAEKVARKLGGQVELHNGQFRIK,2.51
17,MQVTWWNVTVTFSNPEEAKKYAEKVARKLGGQVELHNGQFRIK,2.76
18,MQVTWPNVTVTFSNPEEAKKYAEKVARKLGGQVELHNGQFRIK,0.79
19,MQVTWHNVTVTFSNPEEAKKYAEKVARKLGGQVELHNGQFRIK,2.48
20,MQVTWANVTVTFSNPEEAKKYAEKVARKLGGQVELHNGQFRIK,2.25

row,Variant,folding stability dG [kcal/mol]
1,MQVTWMNVTVTFSNPEEAKKYAEKVARKLGGQVELHNGQFRIK,2.32
2,MQVTWSNVTVTFSNPEEAKKYAEKVARKLGGQVELHNGQFRIK,2.08
3,MQVTWLNVTVTFSNPEEAKKYAEKVARKLGGQVELHNGQFRIK,2.49
4,MQVTWVNVTVTFSNPEEAKKYAEKVARKLGGQVELHNGQFRIK,1.39
5,MQVTWGNVTSTFSNPEEAKKYAEKVARKLGGQVELHNGQFRIK,1.23
6,MQVTWGNVTKTFSNPEEAKKYAEKVARKLGGQVELHNGQFRIK,2.66
7,MQVTWGNVTATFSNPEEAKKYAEKVARKLGGQVELHNGQFRIK,1.97
8,MQVTWGNVTLTFSNPEEAKKYAEKVARKLGGQVELHNGQFRIK,2.76
9,MQVTWGNVTYTFSNPEEAKKYAEKVARKLGGQVELHNGQFRIK,2.7
10,MQVTWGNVTMTFSNPEEAKKYAEKVARKLGGQVELHNGQFRIK,2.67
11,MQVTWGNVTWTFSNPEEAKKYAEKVARKLGGQVELHNGQFRIK,2.84
12,MQVTWGNVTETFSNPEEAKKYAEKVARKLGGQVELHNGQFRIK,1.5
13,MQVTWGNVTRTFSNPEEAKKYAEKVARKLGGQVELHNGQFRIK,2.65
14,MQVTWGNVTFTFSNPEEAKKYAEKVARKLGGQVELHNGQFRIK,2.53
15,MQVTWGNVTDTFSNPEEAKKYAEKVARKLGGQVELHNGQFRIK,0.472
16,MQVTWGNVTNTFSNPEEAKKYAEKVARKLGGQVELHNGQFRIK,1.2
17,MQVTWGNVTHTFSNPEEAKKYAEKVARKLGGQVELHNGQFRIK,2.15
18,MQVTWGNVTQTFSNPEEAKKYAEKVARKLGGQVELHNGQFRIK,1.85
19,MQVTWGNVTCTFSNPEEAKKYAEKVARKLGGQVELHNGQFRIK,3.62
20,MQVTWGNVTPTFSNPEEAKKYAEKVARKLGGQVELHNGQFRIK,-0.399

row,Variant,folding stability dG [kcal/mol]
1,MQVTWGNVTGTFSNPEEAKKYAEKVARKLGGQVELHNGQFRIK,0.582
2,MQVTWGNVTITFSNPEEAKKYAEKVARKLGGQVELHNGQFRIK,2.94
3,MQVTWGNVTTTFSNPEEAKKYAEKVARKLGGQVELHNGQFRIK,1.74
4,MQVTWGNVTVIFSNPEEAKKYAEKVARKLGGQVELHNGQFRIK,2.71
5,MQVTWGNVTVLFSNPEEAKKYAEKVARKLGGQVELHNGQFRIK,2.62
6,MQVTWGNVTVCFSNPEEAKKYAEKVARKLGGQVELHNGQFRIK,3.51
7,MQVTWGNVTVRFSNPEEAKKYAEKVARKLGGQVELHNGQFRIK,2.62
8,MQVTWGNVTVKFSNPEEAKKYAEKVARKLGGQVELHNGQFRIK,2.49
9,MQVTWGNVTVDFSNPEEAKKYAEKVARKLGGQVELHNGQFRIK,1.99
10,MQVTWGNVTVEFSNPEEAKKYAEKVARKLGGQVELHNGQFRIK,2.34
11,MQVTWGNVTVPFSNPEEAKKYAEKVARKLGGQVELHNGQFRIK,1.65
12,MQVTWGNVTVGFSNPEEAKKYAEKVARKLGGQVELHNGQFRIK,2.05
13,MQVTWGNVTVNFSNPEEAKKYAEKVARKLGGQVELHNGQFRIK,2.58
14,MQVTWGNVTVAFSNPEEAKKYAEKVARKLGGQVELHNGQFRIK,2.38
15,MQVTWGNVTVSFSNPEEAKKYAEKVARKLGGQVELHNGQFRIK,2.73
16,MQVTWGNVTVMFSNPEEAKKYAEKVARKLGGQVELHNGQFRIK,2.64
17,MQVTWGNVTVQFSNPEEAKKYAEKVARKLGGQVELHNGQFRIK,2.53
18,MQVTWGNVTVHFSNPEEAKKYAEKVARKLGGQVELHNGQFRIK,2.72
19,MQVTWGNVTVFFSNPEEAKKYAEKVARKLGGQVELHNGQFRIK,3
